Source: the DeepSol protein solubility set

Assay: soluble on expression in E. coli; label from the status in PepcDB or PDB records

Sequence	soluble on expression in E. coli
MVLETPVCSPIDKESSSDDVQLNKPPKKKRKLDVVYPPRDNTSSSSDVKPKVPGYCGVKAIGCNRSDELLAEVALHSYNSQTGTNLELMTVTQVMLQSVAHINYHMILDAFDPANNSLSSIEICLWDAAVKNNEKLRLVTTFCSLEGSGDKGSQWDPNGVDVLYTGVMPKWLDDGALSGSEKLHYYEVNDSDLQENKWLHLYAQVGAYSKWDLGMVKHFPLEIKKVVVQTMEDDIESNLKLKSSNAIFYITFTTSGGVECACIIRQTRNGRPQHMCLEINNVEMDK	soluble
MGSDKIHHHHHHMRISLSTGTLFTFPLGKVMAIARDAGFDGVELIVNQDFQKVNCRTLIRELAEILPIHSMHAPFMPLDGWGSSIDSLKRCVELSADCGVQLVNFHPPSWMGFELGFWRWLYRVMDFQKEVGQGGVIVTLENMPWVGKRVRMNPHILSSTTKFIDFIQERNLFMTFDTTHMGSGKANFINDFYLCYNSGRIRNIHFSDYGHGREHLLPGHGILPLTRFLNHLRSTGYNDTLTLELSPEEFPRDERIIVESLREILSYLRKETEHPIP	not soluble
MNAPVKFEYFKNPKNRELTAVELEAFAKELDQIKQEVLDDIGEKDAKYIRRVYSAVRYSSMLGRACLFAGWFPPAWILGTGLLGFSKIMENMELGHNVMHGQYDWMNDPKFNGQTYEWDTVGTADNWRQTHNYKHHTYTNIKGIDDDIGYGLLRLFPEQRWKPGFLLQPIYSIPFCMLFQWGVAIQNLEIGKLIYKRKTWKQFKQECKPTQKKIGKQLFKDYVFFPLIAGPAALPVFTGNLVANGIRNAWTFSIIFCGHFTKDVEVFPKTVLQNETRGHWYMRQIRGSSNLTGSEAFHILTGHLSHQIEHHLFPDVPARRYRQMAPKVEAVCKKYGLNYNNASLFKQYGQVLGRIVKYAFPFKKLEHHHHHH	soluble
MRGSHHHHHHGIRMRARYPAFSVNYDSSFGGYSIHDYLGQWASTFGDVNHTNGNVTDANSGGFYGGSLSGSQYAISSTANQVTAFVAGGNLTYTLFNEPAHTLYGQLDSLSFGDGLSGGDTSPYSIQVPDVSFGGLNLSSLQAQGHDGVVHQVVYGLMSGDTGALETALNGILDDYGLSVNSTFDQVAAATAVGVQHADSPELLAA	soluble
MGSDKIHHHHHHMVNSSGLLAKLYNAFNPFEPLPAGDPKYVDCQDVRGDADIEQELGNRMRLADTNTCQLYSGHRGAGKSTELLRLKKYLENREFYVVYFAADEEDIDSEDAQYTDILLACTRRLLKDLKGIASPRPILDWLKGRWEDLKDLAQTPIEFESLGVEAQLTQFAKLTANLRAVPELRQKIRQKIDPYTVTLIQVLNEFLVDAKQHLPNGYKKLAVIVDNLDRMVLVKDAERTNYEEVFLDRSEQLQALDCHLIYTVPISMVYSTRATDLRDIYGDPQILPMIMVKTFEGNVYQPGLEKVKEVIKKRVRQIAPELSLETEIFDSPQTLDRLCLMSGGHVRNLLLLTQDAIGRSEDLPVSEKAVRRAITQARDTYRRAVENHQWCLLAEVSCSKRIINDDLYRSLMYNRCLLEYRYLDDDGEMQRWYDIHPLIQGIPEFKEAVAKLS	not soluble
GMDNWQDITDDRLVRPIHPGEVIADILDDLDINTANFAEILGVSNQTIQEVINGQRSITVDIAIRLGKALGNGPRLWLNLQQKVDLWYALQSHKEEYEQVMTLV	soluble
MAHHHHHHLRCAPSKLFRATPLLRVWAAEEDDASAPRTTFRNVRPGRLLRLWRQMRHRAWMLYAWDEEWVSPMQEGYLHQQRLEQVCFAPLSAYGVVPGSYCDPLLYNTKRTSPFRWHVANVQGDVVGHWYMDADELFRIEDWQPREPDDPLEMFPRPPPMLLRWDESVDEHGNRAFRYRYHYDMMGPTGKWEAYPRCPFSHLYHGGPDQHGRAEGYGFQQGHLLRCDEAEEEVLRRIMEGEDREWEMVKRTEAVQEPWSYPGKIRPRDFEGAVEHAKARYRERVRHGKETDPSEDPEYDLVQASEYVEPRDGRRAEWRHLWASGRKPGESLPFHVAFNDGLCFEGNEGGPPAHPAAHYEATPKGAPYGRYEDADAAAARAAEAAHNAACEQSLSEAMARHRRLFGDTSGAPSGPKAPLPTGCRPMRCAPGPPLPSGRSRSSGARAVGSGPVCGAGARDGESEGEGRGGEAPLGYGARACSWRRREGWV	soluble
MPREYEFAEKILFTEEEIRTRIKEVAKRIADDYKGKGLRPYVNPLVLISVLRGSFMFTADLCRALCDFNVPVRMEFICVSSYGEGLTSSGQVRMLLDTRHSIEGHHVLIVEDIVDTALTLNYLYHMYFTRRPASLKTVVLLDKREGRRVPFSADYVVANIPNAFVIGYGLDYDDTYRELRDIVVLRPEVYAEREAARQKKQRAIGSADTDRDAKREFHSKY	soluble
MGSDKIHHHHHHMHHSHHLEIYEKLREKLDKAPVGLPKTVSGVEKEILSVLFDEEEAKIAVHMPFIRFTAEQLAERTGKSLEYVEKILNEMAKKGTVWKGEKDGKTYYRLFPVIVGFAEMPFLAGPGRDARQEKLAPLWAKYRKEGFLDELGDREHAILRALPEKSTISKQSVILPYEDAEKLVRDRDYHAVGYCPCRIMARLIGEGCRHSLEVCLHFGSLGKYMVEHGYARRITADEAVEILRKSNREGLVHVTERSKGPISTICNCCSDCCAFFRAIHEAGHPKTIAHSSYVASVDSSKCIACGICMLRCPMKAVKAKINREPANVEAEKCLGCGVCVPTCPVEAIELVEREELQEWPDHLTYYQELLADRGKDPAGLF	not soluble
MAVGTEESDFEGWAFPFPGVMLIEDFVTREEEAELVRLMDRDPWKLSQSGRRKQDYGPKVNFRKQKLKTEGFCGLPSFSREVVRRMGLYPGLEGFRPVEQCNLDYCPERGSAIDPHLDDAWLWGERLVSLNLLSPTVLSMCREAPGSLLLCSAPSAAPEALVDSVIAPSRSVLCQEVEVAIPLPARSLLVLTGAARHQWKHAIHRRHIEARRVCVTFRELSAEFGPGGRQQELGQELLRIALSFQGRPVLEHHHHHH	soluble
MGSDKIHHHHHHMIEQELTYQDLRIPSSEIYEAMGYKDSIPDQMVIDETNTLLKRVIPLLRPRFAFFFMEGTLDIEKETLSVQSIHPPTVNPIQDTIPTRSPEQNTFSTQSKSTVFSVGKTIARQLRGSEAFVFFAATAGTEFEVFQHTLQQEEDMVKIYIADSLGSIIAEKTADCMEVALAEYIREKNWKHTNRYSPGYCGWHVSEQQKLFPLFPIAAPCGIRLTDSSLMVPIKSVSGVIGTGTNVRKLEYTCGLCTYENCYRKRKHR	not soluble
MGHHHHHHSHMIALKMFYTEETYEQFFDYGLDYVIDASDTICYKIHLMKECLKRDIPLISSMGAANKTDPTRFQIADISKTHTDPIAKVVRTKLRKEGIKKGVQVIFSDESPIVIREDVRKEVGNDEAKIRKAKMPPSSNAFVPSVAGLIMGGHVVMDLLKDIEIKRVKDK	soluble
MGSDKIHHHHHHMDMLSFELIRDGNRPLYEQLYQQIRQEIIEGRLAYGTKLPSKRKLGQFLNLSQTTIELAYQQLVAEGYVESVSRKGYFVLAYEELAYVKTTPLPTSQRSNQQPAMRYDFHPSKIDGSSFPFSRWRKHAKDVIDEQHQSLVSLGHPQGDLSLRLEIATYLYHSRGVVCSPEQIIIGSGVEQLLPHIVFLLGKTTTYGIEDPGYHATRLILKSHERSAVPIPVDQNGLVIPSLVQSPVDVMYVTPAHQFPSGSILSVNRRRQLLNWAAASDRRYIIEDDYDSEFRYSGKSIPSLHSMDSERVIYLSTFSKSLMPSLRIGYMVLPRPLLERYQTEFPYYTCSVSRFDQTILTRFMKEGDFEKHLNRMRKIYRRKLDVVVHALRDVPFLKLTGESAGLHVVLSVSNGMGEQELLRRAKDSSIQVYGLSDYAQLPLSTAYPQIVLGFASLTEQQLMQGLTELVTAWQLK	not soluble
GSQEVRRGDFVRNWQLVAAVPLFQKLGPAVLVEIVRALRARTVPAGAVICRIGEPGDRMFFVVEGSVSVATPNPVELGPGAFFGEMALISGEPRSATVSAATTVSLLSLHSADFQMLCSSSPEIAEIFRKTALERRGAAASA	soluble
MGSRSSHAAVIPDGDSIRRETGFSQASLLRLHHRFRALDRNKKGYLSRMDLQQIGALAVNPLGDRIIESFFPDGSQRVDFPGFVRVLAHFRPVEDEDTETQDPKKPEPLNSRRNKLHYAFQLYDLDRDGKISRHEMLQVLRLMVGVQVTEEQLENIADRTVQEADEDGDGAVSFVEFTKSLEKMDVEQKMSIRILKHHHHHH	soluble
